# Measurements as given in patent US20220119496A1, “INHIBITORS OF CYSTEINE PEPTIDASES ISOLATED FROM NATURAL RAW MATERIALS AND USE OF THE INHIBITORS IN MEDICINE AND VETERINARY MEDICINE” (priority 2019, published 2022).
# Values joined by “and” are separate entries in the source; they are usually repeats but may differ in a detail not shown here. Identical values can stand only once.
# Assays:
# [1] = system: cysteine gingipain in gingival pocket fluids; details: as disclosed in PL 428931; cited from earlier work
# [2] = system: cysteine gingipain in gingival pocket fluids; assay: Inhibition of cysteine gingipain activity in gingival pocket fluids of patients with periodontitis (BApNA substrate); format: biochemical, human; details: not exceeded even with excess inhibitor
# Protocol: In gingival pocket fluids, cysteine gingipain activity was determined as the amount of p-nitroaniline released from BApNA (Benzoyl-DL Arginyl-para-nitroanilide) substrates, or Z-Arg-Arg-pNA (Benzol-DLArg-Arg-β-p-nitroanilide).
# The amount of cysteine peptidases that was used as enzymatic activity was that led to the degradation of the substrates used and release of micromoles of p-nitroaniline from them within 1 minute at 37° C.
# Inhibition was performed in 10 fluid samples from gingival pockets taken from patients diagnosed with periodontitis.
# Determination of gingipain activity in fluids taken from gingival pockets: Fluid from the gingival pockets is taken with small strips of cellulose paper, which are placed in a tube containing 1 ml of PBS. The solution is sonicated for 30 sec on ice, then centrifuged at 10,000 g for 10 min.
# To 1 ml of 20 mM pH 6.0 phosphate buffer containing 2 mM EDTA and 1 mM DTT is added 100 μl gingipain solution, then 20-100 μL inhibitor solution is added, and 20 μL BApNA substrate solution (Benzoyl DL Arginyl para-nitroanilide) 40/mg/ml DMSO. […] Absorbance is measured at 405 nm on a spectrophotometer relative to the control (without inhibitors and papain). Gingipain activity is measured by the amount of para-nitroaniline released.
# chicken embryo = assay: Toxicity in chicken embryo studies; format: in vivo
# [3] = system: cysteine gingipain in gingival pocket fluids; assay: In vitro inhibition of cysteine gingipain activity in human gingival pocket fluids by egg white cystatin (BANA substrate); format: biochemical; details: Table 6
# Protocol: (§1) A solution containing known cystatin from egg white with a concentration of 0.02% and activity of 12 U/mg and 20% glycerin was used to rub the gums of dogs (once a day) and added 0.2 ml to a bowl with 200 ml drinking water (1 mU)/ml cystatin) for 4-6 weeks. Liquids from gingival pockets were removed using plaque paper, which was placed in 1 ml saline and frozen at −80° C., before removing plaque calculus. Then, after the aforementioned cystatin therapy from egg white, fluids from the gingival pockets were taken again in an analogous manner and frozen. After obtaining the desired amount of samples, they were thawed, sonicated, centrifuged to then determine the activity of cysteine gingipain in 100 μL samples using a BANA substrate (Benzoyl-arginyl-beta-naphthylamide). Test samples with a volume of 100 μl were preincubated at 37° C. in 0.01 M phosphate buffer pH 6.0 with the addition of 1 μM DL-cysteine and 2 μM EDTA for 10 minutes, then a solution of N-benzoyl DL-arginyl hydrochloride-β-naphthylamide (BANA) so that its final concentration in the test sample was 1.5 mM, and then incubated under these conditions for 30 minutes. After this time, the reaction was stopped by determining the colorimetrically released β-naphthylamine.
# As one unit of enzymatic activity of cysteine proteinases is the amount of enzyme which releases 1.0 nmole of β-naphthylamine from the substrate within one hour under the described incubation conditions, whereas as an inhibitor unit—the amount that inhibits 1 enzyme unit.
# Patients with periodontitis were taken from the gingival pockets before removing the plaque using tissue strips, which were placed in 1 ml of saline and then frozen at −80° C. […] The solution was sonicated, centrifuged and 100 μl of supernatant was taken for determinations. Various amounts of cystatin were added to the test solution, and then the protease activity was determined by the BANA test as in Example 1.
# [4] = system: cysteine gingipain in gingival pocket fluids; assay: In vivo inhibition of cysteine gingipain activity in dogs (gums rubbed and drinking water with cystatin)
# Protocol: as §1
# Standard tests for which the final result was determined were prepared in parallel with the tested samples, which were solutions containing all components as in the actual tests, except that after adding the BANA substrate the reactions were immediately stopped and the colorimetrically determined free β-naphthylamine was determined. As one unit of enzymatic activity of cysteine proteinases is the amount of enzyme which releases 1.0 nmole of β-naphthylamine from the substrate within one hour under the described incubation conditions, whereas as an inhibitor unit—the amount that inhibits 1 enzyme unit.
# [5] = Storage stability of inhibitory activity; format: physicochemical; details: about 4° C.
# Excerpt: The protein fractions are combined and the whole is subjected to separation on a membrane permeable compounds of a certain size. Because at this stage the interest is focused on the isolation of peptides and not cystatins, the combined protein fractions were not stabilized with glycerol or other glycols. The main reason for not using a stabilizer is the high probability of blocking the filters used in the separation stage. The combined protein fractions (eluate from the affinity chromatography column) are filtered as quickly as possible using membrane permeable to 3 kDa molecules, and then the low molecular filtrate is desalted on membrane permeable to 700 Da. […] The resulting low molecular weight oligopeptides are able to inhibit cysteine peptidase enzymes such as autogenic cathepsins or bacterial enzymes. The low molecular weight cysteine peptidase inhibitors of the invention thus obtained are stored either in a refrigerator (+4° C.) or in a freezer.
# Inhibitory activity of cystatin and several-amino acid inhibitors of cysteine peptidases were determined in relation to cysteine gingipain in gingival pocket fluids and cysteine cathepsins in cancerous tissues and veins of people with atherosclerosis or native cathepsin B.
# [6] = system: cysteine gingipain in gingival pocket fluids; assay: Dog case study, cystatin in drinking water and gum rubbing; format: in vivo; details: one dog
# Protocol: A female mixed breed, weighing about 5 kg and 7 years old, became dejected and avoided food, staggered and turned over, and purulent discharge leaked from her nose. […] In dormancy, the stone was removed along with four molars on the left. During sleep, gingival pocket fluids were removed from 3 gingival pockets on the right using strips of paper and placed in tubes containing 1 ml of saline. After grinding the paper with ultrasound and centrifugation, the activity of cysteine gingipain was determined in solutions. Their activity ranged from 1.35 to 0.89 units based on 1.0 ml of liquid based on the amount of β-naphthylamine released. For 4 weeks, the dog was given water to drink with the addition of cystatin from egg protein at a concentration of about 10-6% and rubbed the gums with a pad impregnated with 0.001% cystatin from egg white 3-4 times a day. […] After 6 years of surgery, there were no changes in the periodontium. After some time, the dog got used to rubbing his gums, which probably saved him from changes in the periodontium.
# Porphyromonas gingivalis = details: concentration of 50 WI; cited from earlier work
# [7] = system: cysteine gingipain in dogs gingival pockets; details: as disclosed in PL 428931; cited from earlier work
# [8] = system: cysteine gingipain in dogs gingival pockets; assay: In vitro inhibition of cysteine proteases in gingival pocket fluid of dogs (BANA); format: biochemical; set-up: key to Cysteine gingipain activity after adding cystatin: enzyme units; 1 U releases 1.0 nmol β-naphthylamine per hour; details: 40 ng cystatin
# Protocol: as §1
# Standard tests for which the final result was determined were prepared in parallel with the tested samples, which were solutions containing all components as in the actual tests, except that after adding the BANA substrate the reactions were immediately stopped and the colorimetrically determined free β-naphthylamine was determined. […]
# Before periodontal removal, dogs with periodontal disease collected fluid from the gingival pockets using tissue strips that were placed in 1 mL of saline. […] Various amounts of cystatin were added to the test solution, and then the protease activity was determined using the BANA substrate as in Example 1.
# [9] = individual samples 1-11, after 4-6 weeks cystatin treatment vs before plaque removal, listed as cystatin solution from egg white
molecule,measurement,setting,value
"cystatin from egg white: known cystatin from egg white, activity 12 U/mg, stabilized with glycerol; natural cysteine peptidase inhibitor (protein, UniProt P01038 24-139, looked up) Cystatin: SEDRSRLLGAPVPVDENDEGLQRALQFAMAEYNRASNDKYSSRVVRVISAKRQLVSGIKYILQVEIGRTTCPKSSGDLQSCEFHDEPEMAKYTTCTFVVYSIPWLNQIKLLESKCQ","blocked proteolytic activity in the gingival pocket fluid, humans",[1],about 85%
same,inhibition of proteolytic activity in gingival pocket fluids compared to total activity,[2],85%
same,toxicity relative to 0.02% chlorhexidine,chicken embryo,about 105 times lower
same,"E/F*100 inhibited activity, Average",[3]; average of 23 samples,15.89 ± 6.28%
same,CP activity after adding cystatin,[3]; individual samples 1-23,0.47 U/ml (3×) and 0.61 U/ml and 1.16 U/ml and 0.98 U/ml (2×) and 1.12 U/ml (2×) and 0.75 U/ml and 0.34 U/ml and 0.87 U/ml and 1.22 U/ml and 1.11 U/ml and 2.19 U/ml and 2.52 U/ml and 1.97 U/ml and 3.96 U/ml and 2.18 U/ml and 3.11 U/ml and 1.28 U/ml and 2.74 U/ml and 1.73 U/ml
same,E/F*100 inhibited activity,[3]; individual samples 1-23,18.29% and 28.11% and 10.59% and 10.08% and 26.86% and 18.94% and 9.63% and 5.67% and 11.03% and 14.79% and 10.68% and 14.30% and 8.99% and 14.76% and 11.46% and 21.57% and 24.84% and 24.00% and 22.20% and 24.47% and 13.87% and 20.10% and 16.83%
same,"% inhibited activity, Average",[4]; average of 11 samples,Approximately 67%
same,"% remaining activity, Average",[4]; average of 11 samples,32.97 ± 21.49%
same,"% inhibited activity, Average","[4]; average of 11 samples, listed as cystatin solution from egg white",67.05 ± 21.52%
same,% inhibited activity,[4]; [9],94.79% and 77.31% and 79.23% and 58.9% and 64.33% and 93.50% and 24.24% and 81.26% and 67.68% and 54.78% and 41.55%
same,% remaining activity,[4]; [9],5.51% and 22.69% and 20.77% and 41.10% and 35.67% and 6.50% and 75.76% and 18.73% and 32.32% and 45.22% and 58.45%
same,inhibitory activity after storage for several months in the refrigerator,[5],dimerizes and loses its biological activity
same,change of gingipain activity in gingival pocket fluids,"[6]; 4 weeks cystatin in water and gum rubbing 3-4 times a day, sampled after 3 months",reduced almost five-fold
same,tartar build-up and gum redness,[6]; after 3 months,no tartar build-up or redness in the gums
same,elimination of bacteria from an infected area,Porphyromonas gingivalis,up to 50%
same,"blocked total proteolytic activity, dogs",[7],about 90%
same,"% inhibited activity, Average",[8]; average of 19 dogs,87.28 ± 8.92%
same,"% remaining activity, Average",[8]; average of 19 dogs,12.72 ± 8.92%
same,Cysteine gingipain activity after adding cystatin,"[8]; dogs gingival pocket fluid, individual samples 1-19, 12 units/mg protein",0.06 (2×) and 0.04 (3×) and 0.03 (3×) and 0.08 and 0.02 (2×) and 0.07 (2×) and 0.09 and 0.15 and 0.24 and 0.13 (2×) and 0.23
